# Key:
# Experiment in all cases: cell-based or functional assay
# [1] = target: HIV-1 envelope (Env) of virus AC10.0.29 (HIV-1)
# [2] = target: HIV-1 envelope (Env) of virus CAP45.2.00.G3 (HIV-1)
# [3] = target: HIV-1 envelope (Env) of virus CNE20 (HIV-1)
# [4] = target: HIV-1 envelope (Env) of virus DU172.17 (HIV-1)
# [5] = target: HIV-1 envelope (Env) of virus REJO4541.67 (HIV-1)
# [6] = target: HIV-1 envelope (Env) of virus WITO4160.33 (HIV-1)
substance,measurement,setting,value
3BNC117 (antibody),"IC50 of viral neutralization (Env.IMC.LucR virus, TZM-BL reporter cells)",[1],11 µg/mL
same,"IC50 of viral neutralization (Env.IMC.LucR virus, TZM-BL reporter cells)",[2],2.7 µg/mL
same,"IC50 of viral neutralization (Env.IMC.LucR virus, TZM-BL reporter cells)",[3],> 50 µg/mL
same,"IC50 of viral neutralization (Env.IMC.LucR virus, TZM-BL reporter cells)",[4],1.25 µg/mL
same,"IC50 of viral neutralization (Env.IMC.LucR virus, TZM-BL reporter cells)",[5],0.07 µg/mL
same,"IC50 of viral neutralization (Env.IMC.LucR virus, TZM-BL reporter cells)",[6],0.053 µg/mL

# — patent US20210040185A1
